Reference: paper PMC6566259, “Engineering of Nanobodies Recognizing the Human Chemokine Receptor CCR7” (International Journal of Molecular Sciences, 2019)

B1: Nb80-YFP1 (VHH)
VHH: QVQLQESGGGLVQAGGSLRLSCAASGSIFSINTMGWYRQAPGKQRELVAAIHSGGSTNYANSVKGRFTISRDNAANTVYLQMNSLKPEDTAVYYCNVKDYGAVLYEYDYWGQGTQVTVSS
notes: Nanobody Nb80 against the β2-adrenergic receptor; The reverse PCR primer appears to encode a His6 stretch at the C-terminus of Nb80, ahead of YFP1 (surmised from the primer); No PDB id is printed; also called Nb80-Y1; pcDNA3-Nb80-YFP1; source: HEK293, transiently transfected, in cells; not shown: split-YFP1 (N-terminal part of split-YFP), C-terminal, kept
B2: Nb80-LgBiT (VHH)
VHH: QVQLQESGGGLVQAGGSLRLSCAASGSIFSINTMGWYRQAPGKQRELVAAIHSGGSTNYANSVKGRFTISRDNAANTVYLQMNSLKPEDTAVYYCNVKDYGAVLYEYDYWGQGTQVTVSS
notes: As the VHH of m1 (Nb80); Nb80 was moved from pcDNA3-Nb80-YFP1 into pcDNA3-CCR7-LgBiT by HindIII and ClaI, followed by site-directed mutagenesis at the junction; A Gly/Ser linker before LgBiT is surmised from the primers; also called pcDNA3-Nb80-LgBiT; source: HEK293, transiently transfected, in cells; not shown: LgBiT (Large BiT of NanoLuc), C-terminal, kept
B3: Nb1-LgBiT (VHH)
VHH: QVQLQESGGGLVQAGGSLRLSCAASGLRFSRNTMGWYRQAPGKQRELVAAIHSGGSTNYANSVKGRFTISRDNAANTVYLQMNSLKPEDTAVYYCNVKDWNNQPNGDDYWGQGTQVTVSS
notes: As the VHH of m3 (Nb1): Nb80 with randomised segments in CDR1 and CDR3; source: HEK293, transiently transfected, in cells; not shown: LgBiT (Large BiT of NanoLuc), C-terminal, kept
B4: Nb1-YFP1 (VHH)
VHH: QVQLQESGGGLVQAGGSLRLSCAASGLRFSRNTMGWYRQAPGKQRELVAAIHSGGSTNYANSVKGRFTISRDNAANTVYLQMNSLKPEDTAVYYCNVKDWNNQPNGDDYWGQGTQVTVSS
notes: As the VHH of m1 (Nb80) with randomised segments in CDR1 and CDR3; Clone from the synthetically randomised Nb80 library; also called Nb1-Y1; source: HEK293, transiently transfected, in cells; not shown: split-YFP1 (N-terminal part of split-YFP), C-terminal, kept
B5: Nb38-LgBiT (VHH)
VHH: QVQLQESGGGLVQAGGSLRLSCAASGHTMFSNTMGWYRQAPGKQRELVAAIHSGGSTNYANSVKGRFTISRDNAANTVYLQMNSLKPEDTAVYYCNVKDFLGLIHFRDYWGQGTQVTVSS
notes: As the VHH of m7 (Nb38): Nb80 with randomised segments in CDR1 and CDR3; source: HEK293, transiently transfected, in cells; not shown: LgBiT (Large BiT of NanoLuc), C-terminal, kept
B6: Nb38-YFP1 (VHH)
VHH: QVQLQESGGGLVQAGGSLRLSCAASGHTMFSNTMGWYRQAPGKQRELVAAIHSGGSTNYANSVKGRFTISRDNAANTVYLQMNSLKPEDTAVYYCNVKDFLGLIHFRDYWGQGTQVTVSS
notes: As the VHH of m1 (Nb80) with randomised segments in CDR1 and CDR3; Clone from the synthetically randomised Nb80 library; also called Nb38-Y1; source: HEK293, transiently transfected, in cells; not shown: split-YFP1 (N-terminal part of split-YFP), C-terminal, kept
B7: Nb5-LgBiT (VHH)
VHH: QVQLQESGGGLVQAGGSLRLSCAASGCVPGPNTMGWYRQAPGKQRELVAAIHSGGSTNYANSVKGRFTISRDNAANTVYLQMNSLKPEDTAVYYCNVKDETRTRHQNDYWGQGTQVTVSS
notes: As the VHH of m5 (Nb5): Nb80 with randomised segments in CDR1 and CDR3; source: HEK293, transiently transfected, in cells; not shown: LgBiT (Large BiT of NanoLuc), C-terminal, kept
B8: Nb5-YFP1 (VHH)
VHH: QVQLQESGGGLVQAGGSLRLSCAASGCVPGPNTMGWYRQAPGKQRELVAAIHSGGSTNYANSVKGRFTISRDNAANTVYLQMNSLKPEDTAVYYCNVKDETRTRHQNDYWGQGTQVTVSS
notes: As the VHH of m1 (Nb80) with randomised segments in CDR1 and CDR3; Clone from the synthetically randomised Nb80 library; also called Nb5-Y1; source: HEK293, transiently transfected, in cells; not shown: split-YFP1 (N-terminal part of split-YFP), C-terminal, kept

Key:
Conditions in all cases: partners not purified
β2AR-SmBiT [1] = target: T1, β2AR-SmBiT (UniProt P07550); experiment: split reporter (BiFC, NanoBiT); G-protein competition assay based on split-luciferase complementation; HEK293 cells co-expressing GPCR-SmBiT, LgBiT-mini-Gαi and Nb-YFP1 or pcDNA3 (1:1:1), stimulated with 10 µM isoproterenol or 1.5 µg/mL CCL19; fold increase in luminescence over baseline
T1 construct: β2-adrenergic receptor; also called pBiT2.1-C-β2AR-SmBiT; source: HEK293, transiently transfected, in cells; not shown: SmBiT (Small BiT of NanoLuc), C-terminal, kept

β2AR-YFP2 = target: T2, β2AR-YFP2 (human, UniProt P07550); experiment: split reporter (BiFC, NanoBiT); BiFC read by flow cytometry; HEK293 cells co-expressing Nb-YFP1 and GPCR-YFP2, stimulated 20 min with 10 µM isoproterenol or 0.5 µg/mL CCL19, fixed in 4% formaldehyde
T2 construct: also called β2-adrenergic receptor; ADRB2; source: HEK293, transiently transfected, in cells; not shown: split-YFP2, C-terminal, kept

β2AR-SmBiT [2] = target: T1, β2AR-SmBiT; experiment: split reporter (BiFC, NanoBiT); split-luciferase complementation; HEK293 cells co-expressing GPCR-SmBiT and Nb-LgBiT (plasmid ratio 1:1), coelenterazine H 5 µM, luminescence before and after 10 µM isoproterenol, 1.5 µg/mL CCL19 or PBS
CCR7-SmBiT = target: T3, CCR7-SmBiT (Homo sapiens, UniProt P32248); experiment: as above
T3 construct: Chemokine receptor CCR7, human; amplified from pcDNA3-CCR7-HA and ligated to SmBiT amplified from pAAVS1P-iCLHN; A Gly/Ser linker between CCR7 and SmBiT is surmised from the primer; also called pcDNA3-CCR7-SmBiT; pBiT2.1-C-CCR7-SmBiT; source: HEK293, transiently transfected, in cells; not shown: SmBiT (Small BiT of NanoLuc), C-terminal, kept
T3 sequence (P32248 25-378): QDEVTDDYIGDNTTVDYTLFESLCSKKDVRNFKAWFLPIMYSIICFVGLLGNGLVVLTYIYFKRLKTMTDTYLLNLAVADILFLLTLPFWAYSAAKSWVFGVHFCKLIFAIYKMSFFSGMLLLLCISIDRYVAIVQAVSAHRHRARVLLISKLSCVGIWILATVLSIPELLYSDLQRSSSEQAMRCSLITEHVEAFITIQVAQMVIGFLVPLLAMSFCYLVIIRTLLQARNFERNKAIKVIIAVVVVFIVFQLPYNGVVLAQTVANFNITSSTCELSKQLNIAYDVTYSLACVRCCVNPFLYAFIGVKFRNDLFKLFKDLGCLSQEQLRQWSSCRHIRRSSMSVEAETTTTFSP

CCR7-YFP2 = target: T4, CCR7-YFP2 (Homo sapiens, UniProt P32248); experiment: split reporter (BiFC, NanoBiT); BiFC read by confocal microscopy; HEK293 cells stably expressing CCR7-YFP2, transiently transfected with Nb-YFP1, unstimulated or stimulated with 0.5 µg/mL CCL19, fixed
T4 construct: Chemokine receptor CCR7, human; amplified by PCR and subcloned into the split-YFP2 BiFC vector; also called CC chemokine receptor 7; CCR7-Y2; source: HEK293, transiently or stably transfected, in cells; not shown: split-YFP2, C-terminal, kept
T4 sequence (P32248 25-378): as above

| Binder | binding result (CCR7-SmBiT) | binding result (CCR7-YFP2) | further results |
| --- | --- | --- | --- |
| B1 |  |  | binding result (β2AR-SmBiT [1]): binds; binding result (β2AR-YFP2): binds |
| B2 |  |  | binding result (β2AR-SmBiT [2]): binds |
| B3 | binds |  |  |
| B4 |  | binds |  |
| B5 | binds |  |  |
| B6 |  | binds |  |
| B7 | binds |  |  |
| B8 |  | binds |  |
